B1: Pistol ribozyme (parent)
chain: GGGUCGUUGUUCCAUAAUCGCGUGGAUAUGGCACGCAAGUUUCUACCGGGCACCGUAAAUGUCCGACUGGAGCCGUUCGGGCGGCUAUAAACAGACCUCAGGCCCGAAGCGUGGCGGCACCUGCCGCCGGUGGUAAAAAAGAUCGGAAGAGCACACGUCU

The variants in the series derive from B1. The series is described as follows: aptazyme ON/OFF ratio, guanine; higher = stronger switching; co-transcriptional cleavage with and without guanine.
With GGGUCGAUCGUGCAUAAUCGCGUGGAUAUGGCACGCAAGUUUCUACCGGGCACCGUAAAUGUCCGACUGGAGCCGUUCGGGCGGCUAUAAACAGACCUCAGGCCCGAAGCGUGGCGGCACCUGCCGCCGGUGGUAAAAAAGAUCGGAAGAGCACACGUCU [U7A G9C U10G C12G], the “aptazyme ON/OFF ratio” value worked out at 1.11.
In the case of GGGUCGAUCGUACAUAAUCGCGUGGAUAUGGCACGCAAGUUUCUACCGGGCACCGUAAAUGUCCGACUGGAGCCGUUCGGGCGGCUAUAAACAGACCUCAGGCCCGAAGCGUGGCGGCACCUGCCGCCGGUGGUAAAAAAGAUCGGAAGAGCACACGUCU [U7A G9C U10G C12A], the “aptazyme ON/OFF ratio” value is 1.09.
Regarding GGGUCGAUCGUUCAUAAUCGCGUGGAUAUGGCACGCAAGUUUCUACCGGGCACCGUAAAUGUCCGACUGGAGCCGUUCGGGCGGCUAUAAACAGACCUCAGGCCCGAAGCGUGGCGGCACCUGCCGCCGGUGGUAAAAAAGAUCGGAAGAGCACACGUCU [U7A G9C U10G C12U], the “aptazyme ON/OFF ratio” value stood at 1.2.
With GGGUCGAUCCGCAAUAAUCGCGUGGAUAUGGCACGCAAGUUUCUACCGGGCACCGUAAAUGUCCGACUGGAGCCGUUCGGGCGGCUAUAAACAGACCUCAGGCCCGAAGCGUGGCGGCACCUGCCGCCGGUGGUAAAAAAGAUCGGAAGAGCACACGUCU [U7A G9C U10C U11G C13A], the “aptazyme ON/OFF ratio” value came out at 1.06.
Turning to GGGUCGAUCCGCUAUAAUCGCGUGGAUAUGGCACGCAAGUUUCUACCGGGCACCGUAAAUGUCCGACUGGAGCCGUUCGGGCGGCUAUAAACAGACCUCAGGCCCGAAGCGUGGCGGCACCUGCCGCCGGUGGUAAAAAAGAUCGGAAGAGCACACGUCU [U7A G9C U10C U11G C13U], the “aptazyme ON/OFF ratio” value turned out to be 1.08.
With GGGUCGAUCCGCGAUAAUCGCGUGGAUAUGGCACGCAAGUUUCUACCGGGCACCGUAAAUGUCCGACUGGAGCCGUUCGGGCGGCUAUAAACAGACCUCAGGCCCGAAGCGUGGCGGCACCUGCCGCCGGUGGUAAAAAAGAUCGGAAGAGCACACGUCU [U7A G9C U10C U11G C13G], the “aptazyme ON/OFF ratio” value amounted to 1.08.
Consider GGGUCGAUCCGUAAUAAUCGCGUGGAUAUGGCACGCAAGUUUCUACCGGGCACCGUAAAUGUCCGACUGGAGCCGUUCGGGCGGCUAUAAACAGACCUCAGGCCCGAAGCGUGGCGGCACCUGCCGCCGGUGGUAAAAAAGAUCGGAAGAGCACACGUCU [U7A G9C U10C U11G C12U C13A], for which the “aptazyme ON/OFF ratio” value turned out to be 1.04.
For GGGUCGAUCCGUUAUAAUCGCGUGGAUAUGGCACGCAAGUUUCUACCGGGCACCGUAAAUGUCCGACUGGAGCCGUUCGGGCGGCUAUAAACAGACCUCAGGCCCGAAGCGUGGCGGCACCUGCCGCCGGUGGUAAAAAAGAUCGGAAGAGCACACGUCU [U7A G9C U10C U11G C12U C13U], the “aptazyme ON/OFF ratio” value came to 1.06.
With GGGUCGAUCCGUGAUAAUCGCGUGGAUAUGGCACGCAAGUUUCUACCGGGCACCGUAAAUGUCCGACUGGAGCCGUUCGGGCGGCUAUAAACAGACCUCAGGCCCGAAGCGUGGCGGCACCUGCCGCCGGUGGUAAAAAAGAUCGGAAGAGCACACGUCU [U7A G9C U10C U11G C12U C13G], the “aptazyme ON/OFF ratio” value was 1.04.
Turning to GGGUCGAUCCGGAAUAAUCGCGUGGAUAUGGCACGCAAGUUUCUACCGGGCACCGUAAAUGUCCGACUGGAGCCGUUCGGGCGGCUAUAAACAGACCUCAGGCCCGAAGCGUGGCGGCACCUGCCGCCGGUGGUAAAAAAGAUCGGAAGAGCACACGUCU [U7A G9C U10C U11G C12G C13A], the “aptazyme ON/OFF ratio” value turned out to be 1.07.
For the variant GGGUCGAUCCGGUAUAAUCGCGUGGAUAUGGCACGCAAGUUUCUACCGGGCACCGUAAAUGUCCGACUGGAGCCGUUCGGGCGGCUAUAAACAGACCUCAGGCCCGAAGCGUGGCGGCACCUGCCGCCGGUGGUAAAAAAGAUCGGAAGAGCACACGUCU [U7A G9C U10C U11G C12G C13U], the “aptazyme ON/OFF ratio” value is 1.05.
Next, GGGUCGAUCCGGGAUAAUCGCGUGGAUAUGGCACGCAAGUUUCUACCGGGCACCGUAAAUGUCCGACUGGAGCCGUUCGGGCGGCUAUAAACAGACCUCAGGCCCGAAGCGUGGCGGCACCUGCCGCCGGUGGUAAAAAAGAUCGGAAGAGCACACGUCU [U7A G9C U10C U11G C12G C13G]: 1.17.
For GGGUCGAUCGAGAAUAAUCGCGUGGAUAUGGCACGCAAGUUUCUACCGGGCACCGUAAAUGUCCGACUGGAGCCGUUCGGGCGGCUAUAAACAGACCUCAGGCCCGAAGCGUGGCGGCACCUGCCGCCGGUGGUAAAAAAGAUCGGAAGAGCACACGUCU [U7A G9C U10G U11A C12G C13A], the “aptazyme ON/OFF ratio” value turned out to be 1.07.
Regarding GGGUCGAUCGAGUAUAAUCGCGUGGAUAUGGCACGCAAGUUUCUACCGGGCACCGUAAAUGUCCGACUGGAGCCGUUCGGGCGGCUAUAAACAGACCUCAGGCCCGAAGCGUGGCGGCACCUGCCGCCGGUGGUAAAAAAGAUCGGAAGAGCACACGUCU [U7A G9C U10G U11A C12G C13U], the “aptazyme ON/OFF ratio” value came to 1.06.
Turning to GGGUCGAUCGAGGAUAAUCGCGUGGAUAUGGCACGCAAGUUUCUACCGGGCACCGUAAAUGUCCGACUGGAGCCGUUCGGGCGGCUAUAAACAGACCUCAGGCCCGAAGCGUGGCGGCACCUGCCGCCGGUGGUAAAAAAGAUCGGAAGAGCACACGUCU [U7A G9C U10G U11A C12G C13G], the “aptazyme ON/OFF ratio” value worked out at 1.21.
The same measure for GGGUCGAUCGACCAUAAUCGCGUGGAUAUGGCACGCAAGUUUCUACCGGGCACCGUAAAUGUCCGACUGGAGCCGUUCGGGCGGCUAUAAACAGACCUCAGGCCCGAAGCGUGGCGGCACCUGCCGCCGGUGGUAAAAAAGAUCGGAAGAGCACACGUCU [U7A G9C U10G U11A]: 1.03; for GGGUCGAUCCGUCAUAAUCGCGUGGAUAUGGCACGCAAGUUUCUACCGGGCACCGUAAAUGUCCGACUGGAGCCGUUCGGGCGGCUAUAAACAGACCUCAGGCCCGAAGCGUGGCGGCACCUGCCGCCGGUGGUAAAAAAGAUCGGAAGAGCACACGUCU [U7A G9C U10C U11G C12U]: 1.06.
For GGGUCGAUCGUCCAUAAUCGCGUGGAUAUGGCACGCAAGUUUCUACCGGGCACCGUAAAUGUCCGACUGGAGCCGUUCGGGCGGCUAUAAACAGACCUCAGGCCCGAAGCGUGGCGGCACCUGCCGCCGGUGGUAAAAAAGAUCGGAAGAGCACACGUCU [U7A G9C U10G], the “aptazyme ON/OFF ratio” value worked out at 1.32.

The values are drawn from the RNAGym collection of RNA variant scans (doi:10.1021/acssynbio.7b00057).
